Experimental data published in patent publication US20100189722A1 (Boehringer Ingelheim, published 2010).

Biological target: T1, CD37 antigen (cellular CD37 on Ramos Burkitt lymphoma cells; also on RPMI 8226 multiple myeloma cells) (human, UniProt P11049 1-281)
T1 sequence (looked up): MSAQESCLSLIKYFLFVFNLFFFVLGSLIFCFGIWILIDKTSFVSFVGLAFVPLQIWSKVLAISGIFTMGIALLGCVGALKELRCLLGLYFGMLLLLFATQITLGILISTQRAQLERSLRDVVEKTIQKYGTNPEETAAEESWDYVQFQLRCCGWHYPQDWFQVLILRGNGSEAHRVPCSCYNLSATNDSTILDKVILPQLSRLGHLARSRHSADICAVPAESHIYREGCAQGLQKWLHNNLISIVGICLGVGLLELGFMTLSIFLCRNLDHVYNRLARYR
Assay: cell-based or functional assay

B1: Fc-engineered chimeric anti-CD37 antibody A2 (S239D/I332E) (antibody, human IgG1, kappa)
heavy: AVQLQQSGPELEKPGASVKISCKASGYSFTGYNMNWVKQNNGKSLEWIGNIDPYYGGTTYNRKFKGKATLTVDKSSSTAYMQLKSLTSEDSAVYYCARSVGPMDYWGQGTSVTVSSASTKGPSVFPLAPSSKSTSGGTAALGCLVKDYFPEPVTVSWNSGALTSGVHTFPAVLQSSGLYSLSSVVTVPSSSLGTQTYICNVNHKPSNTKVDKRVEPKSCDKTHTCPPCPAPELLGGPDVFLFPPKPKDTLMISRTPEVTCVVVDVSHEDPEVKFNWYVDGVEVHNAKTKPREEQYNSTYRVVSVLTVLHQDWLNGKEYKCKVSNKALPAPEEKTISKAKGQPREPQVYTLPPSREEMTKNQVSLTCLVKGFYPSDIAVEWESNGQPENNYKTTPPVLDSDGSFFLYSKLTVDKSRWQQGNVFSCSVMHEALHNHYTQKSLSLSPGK
light: DIQMTQSPASLSASVGETVTITCRTSENVYSYLAWYQQKQGKSPQLLVSFAKTLAEGVPSRFSGSGSGTQFSLKISSLQPEDSGSYFCQHHSDNPWTFGGGTELEIKRTVAAPSVFIFPPSDEQLKSGTASVVCLLNNFYPREAKVQWKVDNALQSGNSQESVTEQDSKDSTYSLSSTLTLSKADYEKHKVYACEVTHQGLSSPVTKSFNRGEC
ADCC EC50 on RPMI 8226 multiple myeloma cells: ~0.025 µg/mL

B2: Fc-engineered humanized anti-CD37 antibody B2 (S239D/I332E) (antibody, human IgG1, kappa, V domains shown)
VH: AVQLVQSGAEVKKPGSSVKVSCKASGYSFTGYNMNWVRQAPGQGLEWMGNIDPYYGGTTYNRKFKGRVTLTVDKSSSTAYMELSSLRSEDTAVYYCARSVGPMDYWGQGTLVTVSS
VL: DIQMTQSPSSLSASVGDRVTITCRTSENVYSYLAWYQQKPGKAPKLLVSFAKTLAEGVPSRFSGSGSGTDFTLTISSLQPEDFATYFCQHHSDNPWTFGQGTKVEIKR
ADCC EC50 on RPMI 8226 multiple myeloma cells: ~0.025 µg/mL
